Measurements from patent US20260275324A1, “UNNATURAL AMINO ACID IN CELLULO SYNTHESIS FOR SITE-SPECIFIC PROTEIN MODIFICATION” (The Chinese University of Hong Kong, priority 2023, published 2026).
One block for each substance: values may come before it.

Tests used:
[1] = molecular target: CDK4 of MCF-7 cells (endogenous) (UniProt P11802); experiment: cell-based or functional assay
α-synuclein = α-synuclein (Homo sapiens, UniProt P37840); conditions: in vitro and in vivo, Liang et al. 2021; cited from earlier work
[2] = molecular target: GST-CDK4 (Sino Biological) (UniProt P11802); experiment: microscale thermophoresis (MST), against linear MBP-P16p as reference
[3] = molecular target: GST-CDK4 (Sino Biological) (UniProt P11802); experiment: microscale thermophoresis (MST); Alexa Fluor 647-labelled MBP-cycP16p at 70 nM, GST-CDK4 titrated from 1.92 µM

Chain of cycRGD-mCh-cycP16p (bifunctional bicyclic protein) (P42771 83-103): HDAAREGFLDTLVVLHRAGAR
Chain of GST-CDK4 (Sino Biological) (P11802 whole entry): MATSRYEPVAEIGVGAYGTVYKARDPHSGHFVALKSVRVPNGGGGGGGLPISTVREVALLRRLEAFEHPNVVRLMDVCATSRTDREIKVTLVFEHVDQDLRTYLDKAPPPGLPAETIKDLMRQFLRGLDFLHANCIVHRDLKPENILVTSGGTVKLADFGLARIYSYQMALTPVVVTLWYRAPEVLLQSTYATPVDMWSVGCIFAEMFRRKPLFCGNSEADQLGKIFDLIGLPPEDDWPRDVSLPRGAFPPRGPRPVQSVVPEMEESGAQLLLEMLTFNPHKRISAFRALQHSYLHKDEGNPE

- percent of MCF-7 cells arrested at G0/G1 phase (flow cytometry, 15 µM, 24 h) [1]: 46.7%
Substance: cycRGD-mCh-P16p (cycRGD-mCherry bearing linear uncyclized P16p) (from UniProt P42771 83-103)

- percent of MCF-7 cells arrested at G0/G1 phase (flow cytometry, 15 µM, 24 h) [1]: 60.7%
Substance: R9-P16p (linear P16p fused to the poly-arginine cell penetrating sequence; Pepmic) (from UniProt P42771 84-103) (peptide)

Substance: SUMOmini2: earlier linear version of SUMO1 peptide (15-55), Liang et al.
- inhibition of α-synuclein aggregation (α-synuclein): effectively inhibit α-synuclein aggregation in vitro and in vivo

- percent of MCF-7 cells arrested at G0/G1 at 72 h (time course) [1]: 88%
- percent of MCF-7 cells arrested at G0/G1 phase (flow cytometry, 15 µM, 24 h) [1]: 76.7%
Substance: cycRGD-mCh-cycP16p (bifunctional bicyclic protein) (from UniProt P42771 83-103)

- fold higher binding affinity compared to its linear counterpart MBP-P16p [2]: 4 fold
- Kd [3]: 27.7 nM
Substance: MBP-cycP16p (cyclized MBP-P16p protein) (from UniProt P0AEX9 27-392; P42771 83-103)
